In patent publication US20240166738A1 (priority 2021, published 2024):

B1: TM-29: anti-TMEM106B monoclonal antibody; CDR-H1-3 SEQ ID NO: 20, 60, 103; CDR-L1-3 SEQ ID NO: 143, 168, 207 (antibody, V domains shown)
VH: QVQLRQSGAELVRPGASVKLSCKASGYTFTDYYINWVKQRPGQGLEWIARIYPGSGYTYYNEKFKGKATLTAEGSSNTAYMQLSSLTSEDSAVYFCANHYTNPFAYWGQGTLVTVSA
VL: DIVMTQAAFSNPVTLGTSASISCRSSKSLLHYNGITYLYWYLQKPGQSPQLLIYQMSNLASGVPDRFSSSGSGTDFTLRISRVEAEDVGVYYCAQNLELPYTFGGGTKLEIK
B2: TM-88: anti-TMEM106B monoclonal antibody; VH SEQ ID NO: 493, VL SEQ ID NO: 528 (antibody, V domains shown)
VH: EAQLQQSGPVLVKPGASVKMSCKTSGYTFTDYYINWVKQSHGKSLEWIGVINPYSGATYYTQKFKGKATLTVDKSSSTAYMELNSQTSEDSAVYYCARGGYDYGHWYFDVWGTGTTVTVSS
VL: ETTVTQSPASLSMAIGEKVTIRCITSSDIDDHMNWYRQKPGEPPEFLISEGNALRPGVPSRFSSSGYGTDFIFTIENILSEDVADYYCLQSDNLPLTFGAGTKLELK
modifications: Variable Heavy Chain -- TM-88; Variable Light Chain -- TM-88
B3: TM-86: anti-TMEM106B monoclonal antibody; VH SEQ ID NO: 491, VL SEQ ID NO: 526 (antibody, V domains shown)
VH: EVQLQQSGPVLVKPGASVKMSCKASGYTFTDYYIHWVKQSHGRSLEWIGVISPYNDNTNYNQKFKGKATLTVDKSSSTAYMELNSLTSEDSAVYYCVRTYYSNYFDYWGQGTTLTVSS
VL: DIVMTQSPSSLSVSAGEKVTMSCKSSQSLLNSGNQKNYLAWHQQRPGQPPKLLIYGASTRESGVPDRFTGSGSGTEFTLTISSVQAEDLAVYYCQNDHSYPLTFGAGTKLELK
modifications: Variable Heavy Chain -- TM-86; Variable Light Chain -- TM-86
B4: TM-28: anti-TMEM106B monoclonal antibody; CDR-H1-3 SEQ ID NO: 8, 59, 102; CDR-L1-3 SEQ ID NO: 142, 166, 190 (antibody, V domains shown)
VH: EVQLQQSGPVLVKPGPSVKISCMASVFTFNDYYIHWVKQSHGKSLEWIGLVYPYNGGTNYNQNFKGKATLTVDTSSRTAYMELNSLTSEDSAVYYCARSYFSNPIGYWGQGTLVTVSE
VL: DIVMTQSPSSLSVSVGEKVTVSCKSSQSLLNSGNQKNYLAWYQQKPGQPPKLLIYGASTRESGVPDRFTGSGSGTDFTLTISSVQAEDLAVYYCQNDHSYPLTFGAGTKLELK
B5: TM-72: anti-TMEM106B monoclonal antibody; VH SEQ ID NO: 477, VL SEQ ID NO: 512 (antibody, V domains shown)
VH: QVQLQQPGAELVKPGTSVKLSCKASGSTFTNYWMHWVMQRPGQGLEWIGNIDPSDSDTHYNQKFKDRAKLTVDKSSSTAYMQLSGLTSEDSAVYYCARSRGGYYDYGEAMDYWGQGTSVTVSS
VL: DIVMTQAAPSVPVTPGESVSISCRSSKSLLHTNGNTYLFWFIQRPGQSPHLLIYRKSNLASGVPDRFSGSGSGTAFTLRISRVEAEDVGVYYCMQHLEYPFTFGSGTKLEIK
modifications: Variable Heavy Chain -- TM-72; Variable Light Chain -- TM-71, TM-72
B6: TM-30: anti-TMEM106B monoclonal antibody; CDR-H1-3 SEQ ID NO: 21, 61, 104; CDR-L1-3 SEQ ID NO: 144, 160, 208 (antibody, V domains shown)
VH: QVQLQQSGPELVKPGASVKLSCKASDNTFTNYDVNWVRQRPGQGLEWIGWIYPRDGTTIYNEKFKGRATLTVDTSSSTAYMELHSLTSEDSAVFFCARTLPQAMDYWGQGTSVTVSS
VL: DVLMTQSPLSLPVSLGDQVSISCRSSQTIVHRNGNTYLEWYLQKPGQSPKLLIYKVSNRFSGVPDRFSGSGSGTDFTLKISRVEAEDLGVYYCFQGSHLPWTFGGGTKLEIK
B7: TM-84: anti-TMEM106B monoclonal antibody; VH SEQ ID NO: 489, VL SEQ ID NO: 524 (antibody, V domains shown)
VH: QVQLQQSGAELVKPGASVKMSCKASGYTFTTFPIEWMKQNHGKSLEWIGNFHPYNDDTKYNEKFKGKATLTVEKSSSTVYLELSRLTSDDSAVYYCARYFYGGMDYWGQGTSVTVSS
VL: DIQMTQSPASLSVSVGETVTITCRASENIYSSLGWYHQKQGKSPQLLVFAATNLADGVPSRFSGSGSGTQYSLKINSLQSEDFGTYYCQHLWSVPWTFGGGTKLEIK
modifications: Variable Heavy Chain -- TM-84; Variable Light Chain -- TM-84
B8: TM-15: anti-TMEM106B monoclonal antibody; CDR-H1-3 SEQ ID NO: 15, 49, 92; CDR-L1-3 SEQ ID NO: 133, 171, 197 (antibody, V domains shown)
VH: QVQLQQPGAEFVRPGASVKLSCKASGYTFTNYWITWVKQRPGHGLEWIGDIYPGSGNSNYNESFKRKATLTVDTSSSTAYMHLSSQTSEDSAVYFCARKAYGGFPYWGQGTLVTVSA
VL: DIQMTQSPASLSVSVGETVTITCRVSENIYNNLAWYQQKQEKSPQLLVFAATNLADGVPSRFSGSGSGTQFSLKINSLQSEDFGTYYCQHFWDTPFTFGSGTKLEIK
B9: TM-5: anti-TMEM106B monoclonal antibody; CDR-H1-3 SEQ ID NO: 6, 39, 82; CDR-L1-3 SEQ ID NO: 124, 164, 188 (antibody, V domains shown)
VH: QVQLQQSGTELARPGASVKVSCKASGYIFTTYGITWVKQRGGQGLEWIGEIYPRSDNTYYNEKFKDKATLTADKSSSTAYMELRSLTSEDSAVYFCARSKGSGTGDYWGQGTTVTVSS
VL: DIQMTQSPASLSASVGETVTITCRASENIYIYLAWYQQKQGKTPQLLVYNGKMLAENVPSRFSGSGSGTQFSLKINSLQPEDFGSYYCQHHYGSPPAFGAGTKLELK
B10: TM-63: anti-TMEM106B monoclonal antibody; VH SEQ ID NO: 469, VL SEQ ID NO: 505 (antibody, V domains shown)
VH: QVQLQQPGAELVKFGASVKLSCKASGYTFTSFWMHWVKQRPGQGLEWIGNIDPSDSETHYSQKFKDKATLTVDRSSNTAYIQLSSLTSEDSAVYYCARSSNWDNFDYWGQGTTVTVSS
VL: DIVMTQASPSVSVTPGESVSISCRSSQSLLHVNGNTYLYWFLQRPGRSPRLLIYRMSNLASGVPDRFSGSGSGTAFTLRISRVEAEDVGVYYCMQHLQYPFSFGSGTKLEMK
modifications: Variable Heavy Chain -- TM-63; Variable Light Chain -- TM-63
B11: TM-78: anti-TMEM106B monoclonal antibody; VH SEQ ID NO: 483, VL SEQ ID NO: 518 (antibody, V domains shown)
VH: QVQLQQPGAELVKPGASVKLSCKASGYTFTNHWMHWVRQRPGQGLEWIGNIDPSDSDTHYNHKFKDKATLIVDKSSSTAYLQLSSLTSEDSAVFYCARSRGGYYDYGEAMDYWGQGTSVTVSS
VL: DIVMTQATPSIPVTPGESVSISCRSSKSLLHVNGNTYLFWFLQRPGQSPQLLIYRMSNLASGVPDRFSGSGSGTAFTLRISRVEAEDVGVYYCMQHLEYPFTFGSGTKLEIK
modifications: Variable Heavy Chain -- TM-78; Variable Light Chain -- TM-78
B12: TM-64: anti-TMEM106B monoclonal antibody; VH SEQ ID NO: 470, VL SEQ ID NO: 506 (antibody, V domains shown)
VH: QVQLQQPGAELVKPGASVKLSCKASGYTFTSYWMHWVKQRPGHGLEWIGNIDPSDSDTHYNQNFRGKATLTVDKFSTTAYMHLSSLTSEDSAVYYCARSRGGTYDYGEAMDYWGQGTSVTVSS
VL: DIVMTQAAPSVPVTPGESVSISCRSSKSLLHTNGNTYLFWFLQRPGRSPQLLIYRMSNLASGVPDRFSGSGSGTAFTLRISRVEAEDVGVYYCMQHLEYPFTFGSGTKLEIK
modifications: Variable Heavy Chain -- TM-64; Variable Light Chain -- TM-64

Molecular target: GST-TMEM106B (truncated, comprising amino acids 122-210 of SEQ ID NO:1) (Homo sapiens, UniProt Q9NUM4)
Sequence (Q9NUM4 122-210): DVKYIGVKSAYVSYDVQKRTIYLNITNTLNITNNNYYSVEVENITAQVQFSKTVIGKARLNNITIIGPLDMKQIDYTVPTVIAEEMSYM
Assay: Pre-mix epitope binning of anti-TMEM106B antibodies (Carterra / Lake Pharma)
Format: binding
Parameters: key to epitope bin: Bin 1: competes for binding to the same or overlapping TMEM106B region as the TM1, TM17, TM22, TM26, TM79, and/or TM82 antibodies; Bin 2: competes for binding to the same or overlapping TMEM106B region as the TM3, TM9, TM10, TM11, TM12, TM13, TM18, TM19, TM21, TM24, TM25, TM32, TM35, TM37, TM42, TM45, TM48, TM54, TM59, TM60, TM61, and/or TM76 antibodies; Bin 3: competes for binding to the same or overlapping TMEM106B region as the TM7, TM15, TM83, and/or TM84 antibodies; Bin 4: competes for binding to the same or overlapping TMEM106B region as the TMS, TM28, TM29, TM30, TM63, TM64, TM72, TM78, TM80, TM86, and/or TM88 antibodies; Bin 5: does not bind to a truncated TMEM106B comprising amino acids 122-210 of SEQ ID NO:1
Conditions: for epitope bin: competition for binding to truncated GST-TMEM106B (amino acids 122-210); for Binding Community/Bin: epitope bin number, pre-mix binning on truncated GST-TMEM106B
Description: (§1) Monoclonal anti-TMEM106B antibodies were immobilized to a CMD 50M chip (Xantec # SPMXCMD5OM lot# SCCMD50M0416). The running buffer was HBS-EP+ with 1 mg/mL BSA. The GST-TMEM106B (truncated, comprising amino acids 122-210 of SEQ ID NO:1) antigen was prepared at a final concentration of 55 nM (corresponding to 2 μg/mL) and mixed with the competing analyte anti-TMEM106B antibodies at a final concentration of 333 nM (corresponding to 50 μg/mL) or compared to a buffer control. Samples were injected for 5 minutes over the array and regenerated after every cycle with 1 minute of two parts Pierce IgG-Elution buffer (ThermoFisher Cat#21004) and 1 part of 10 mM Glycine, pH 2.0 (Carterra).
Anti-TMEM106B antibodies sorted into various competing bins and resulting binning profiles. […] Antibodies within Bin 3 or Bin 4 partially block Bin 2 antibodies.
as §1, with “SPMXCMD50M” for “SPMXCMD5OM”, “lmg/ml” for “1 mg/mL”, “(truncated)” for “(truncated, comprising amino acids 122-210 of SEQ ID NO:1)”, “μg/ml)” for “μg/mL)”

Molecule	epitope bin	Binding Community/Bin
B1	Bin 4	4
B2	Bin 4	4
B3	Bin 4	4
B4	Bin 4	4
B5	Bin 4	4
B6	Bin 4	4
B7	Bin 3	3
B8	Bin 3	3
B9	Bin 4	4
B10	Bin 4	4
B11	Bin 4	4
B12	Bin 4	4
